Results taken from patent US20170267766A1 (PIERRE FABRE MEDICAMENT, published 2017).

What was measured:
[1] = target: T1, monkey IGF-1R (on COS-7 cells) (African green monkey); experiment: cell-based or functional assay
[2] = target: T2, human insulin receptor (on cells) (human, UniProt P06213 28-1382); experiment: FACS on hIR+ transfected cells, 4°C
T2 construct: whole, on cells; on stably transfected cells or on IM9 cells; also called hIR; IR
Experimental: In order to verify the absence of binding of both murine and chimeric antibodies on hIR, a stable cell line expressing the human IR was used. The recognition of human cell surface hIR by both murine and chimeric Ab was performed by FACS analyses. Increasing concentrations of either the murine or the chimeric mAbs were incubated on the hIR′ transfected cell line for 20 minutes at 4° C. in FACS buffer (PBS, 0.1% BSA, 0.01% NaN₃). Cells were then washed 3 times and incubated with the appropriate secondary antibody coupled with Alexa 488 before being incubated for 20 additional minutes at 4° C. in the dark and then washed 3 times in FACS buffer. The binding of anti-IGF-1R antibodies was immediately performed on viable cells which were identified using propidium iodide (that stains dead cells). The binding EC₅₀ expressed in molarity (M) was calculated using a nonlinear regression analysis (GraphPad Prims 4.0). […] The c9G4 was introduced as an irrelevant antibody (isotype control).

[3] = target: T3, rmIGF-1R protein (R&D Systems, cat No 6630-GR/Fc) (murine, UniProt Q60751 31-936); experiment: ELISA, coated rm IGF-1R, SNT 5 ug/ml
T3 construct: extracellular domain; bought; also called murine extracellular domain (ECD) of IGF-1R; not shown: Fc only implied by the catalogue number; not described
T3 sequence (Q60751 31-936): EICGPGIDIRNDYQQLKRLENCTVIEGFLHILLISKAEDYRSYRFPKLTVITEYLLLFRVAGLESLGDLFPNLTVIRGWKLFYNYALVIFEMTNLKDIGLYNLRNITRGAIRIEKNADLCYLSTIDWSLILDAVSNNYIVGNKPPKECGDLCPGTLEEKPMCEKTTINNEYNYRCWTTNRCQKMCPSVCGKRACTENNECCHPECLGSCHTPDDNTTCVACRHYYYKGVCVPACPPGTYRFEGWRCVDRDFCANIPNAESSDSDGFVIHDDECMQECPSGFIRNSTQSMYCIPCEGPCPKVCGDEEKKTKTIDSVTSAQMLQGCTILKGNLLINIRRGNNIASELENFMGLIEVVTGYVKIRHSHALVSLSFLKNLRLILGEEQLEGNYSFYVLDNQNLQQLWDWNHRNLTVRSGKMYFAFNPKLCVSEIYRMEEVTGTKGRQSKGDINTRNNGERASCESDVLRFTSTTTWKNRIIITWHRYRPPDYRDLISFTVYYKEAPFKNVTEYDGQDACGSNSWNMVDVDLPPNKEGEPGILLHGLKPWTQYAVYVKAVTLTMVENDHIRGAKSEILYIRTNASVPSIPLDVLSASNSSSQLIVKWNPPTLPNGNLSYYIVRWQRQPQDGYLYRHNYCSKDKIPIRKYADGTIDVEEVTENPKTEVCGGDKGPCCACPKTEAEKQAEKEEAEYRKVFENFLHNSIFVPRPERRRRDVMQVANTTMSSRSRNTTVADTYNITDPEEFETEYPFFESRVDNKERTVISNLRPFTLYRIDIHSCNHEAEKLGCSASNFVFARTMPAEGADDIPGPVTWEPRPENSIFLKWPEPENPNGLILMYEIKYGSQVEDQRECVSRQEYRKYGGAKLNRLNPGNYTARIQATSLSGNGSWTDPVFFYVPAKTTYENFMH
Experimental: (§1) In addition three ELISA were performed (either before or after cloning) to study the binding of antibodies on the recombinant human (hIGF-1R) and murine (mIGF-1R) proteins, and on the recombinant human Insulin Receptor (hIR) protein. […] The plates were then blocked with PBS containing 0.5% gelatin (#22151, Serva Electrophoresis GmbH, Heidelberg, Germany) for 2 h at 37° C. Once the saturation buffer discarded by flicking plates, 100 μl of each supernatant dilution were added to the wells (either undiluted hybridoma supernatant either supernatant serial dilutions) and incubated for 1 h at 37° C. […] Then, ELISA plates were washed 3-times and the TMB (#UP664782, Uptima, Interchim, France) substrate is added. After a 10 min incubation time at room temperature, the reaction was stopped using 1 M sulfuric acid and the optical density at 450 nm is measured.

[4] = target: T4, human IGF-1R (native, on cells) (human, UniProt P08069 31-1367); experiment: FACS, Tf hIGF1R+ cells, Ab 5 ug/ml
T4 construct: also called hIGF-1R; native IGF-1R on MCF-7 cells

[5] = target: T1, monkey IGF-1R (on COS-7 cells); experiment: FACS, Cos-7 (monkey IGF1R+), Ab 5 ug/ml
[6] = target: T4, human IGF-1R (native, on cells); experiment: FACS, MCF7, 4°C, Ab 5 ug/ml
Experimental: Additionally an internalization assay was performed in order to select only internalizing antibodies. For this assay, the MCF7 tumor cell line was cultured in RMPI 1640 without phenol red with 1% L-glutamine and 10% of […] for 3 days before experiment. Cells were then detached using trypsin and 100 μl of a cell suspension at 4·10⁵ cell/ml are plated in 96-multiwell plates in RPMI1640 without phenol red with 1% L-glutamine and 5% FBS. After a 2 min centrifugation at 2000 rpm, cells were resupended in 50 μl of hybridoma supernatant or control antibody solutions (positive and isotype controls at 1 μg/ml). After a 20 min incubation time at 4° C., cells were centrifuged 2 min at 2000 rpm and resuspended in either cold (4° C.) or warm (37° C.) complete culture medium. Cells were then incubated for 2 hours either at 37° C. or at 4° C. Then cells were washed three times with FACS buffer. An Alexa 488-labeled goat anti-mouse IgG antibody was incubated for 20 minutes and cells were washed three times before FACS analysis on propidium iodide negative cell population.

[7] = target: T3, rmIGF-1R protein (R&D Systems, cat No …); experiment: ELISA, coated rmIGF-1R (Table 8)
Experimental: as §1

[8] = target: T4, human IGF-1R (native, on cells); experiment: cell-based or functional assay
[9] = target: T5, rhIR protein (R&D Systems, cat No 1544-IR/CF) (human, UniProt P06213-2 28-944); experiment: ELISA, coated rhIR 1 ug/ml
T5 construct: extracellular domain; bought; also called rh Insulin R; recombinant human Insulin Receptor
Experimental: as §1

[10] = target: T4, human IGF-1R (native, on cells); experiment: cell-based or functional assay; remark: listed apart in the source
[11] = target: T4, human IGF-1R (native, on cells); experiment: FACS titration, hIGF-1R transfected cells
Experimental: Briefly, increasing concentrations of chimeric mAbs were incubated with cells for 20 min at 4° C. in FACS buffer (PBS, 0.1% BSA, 0.01% NaN₃). Cells were then washed 3 times and incubated with the appropriate secondary antibody coupled with Alexa 488 before being incubated for 20 additional minutes at 4° C. in the dark and then washed 3 times in FACS buffer. The binding of anti-IGF-1R antibodies was immediately performed on viable cells which were identified using propidium iodide (that stains dead cells). The binding EC₅₀ expressed in molarity (M) was calculated using a nonlinear regression analysis (GraphPad Prims 4.0).

[12] = target: T4, human IGF-1R (native, on cells); experiment: cell-based or functional assay; remark: listed apart in the source
[13] = target: T4, human IGF-1R (native, on cells); experiment: FACS titration, MCF-7
Experimental: The binding properties of a series of anti-IGF-1R antibodies were evaluated by FACS analyses on the human MCF-7 breast adenocarcinoma cell line (ATCC#HTB-22) using increasing antibody concentrations. For that purpose, cells (1×10⁶ cells/ml) were incubated with anti-IGF-1R antibodies for 20 min. at 4° C. in FACS buffer (PBS, 0.1% BSA, 0.01% NaN₃). They were then washed 3 times and incubated with the appropriate secondary antibody coupled with Alexa 488 for 20 additional minutes at 4° C. in the dark before being washed 3 times in FACS buffer. The binding of anti-IGF-1R antibodies was immediately performed on viable cells which were identified using propidium iodide (that stains dead cells). The maximum of signal intensity obtained with each antibody was designed as Bₘₐₓ and expressed in mean of fluorescence intensity (MFI). The EC₅₀ of binding expressed in molarity (M) was calculated using a nonlinear regression analysis (GraphPad Prims 4.0).

B1: m212A11 (antibody, V domains shown)
VH: QVQLQQSGPELVKPGASVKMSCKASGYTFTSYYIHWVKQRPGQGLEWIGWIWPGDGSTKYNEKFKGKTTLTADKSSSTAYMFLSSLTSEDSAVYFCASPMITPNYAMDYWGQGASVTVSS
VL: DIQMTQTTSSLSASLGDRVTISCRASQDINKYLNWYQQQPDGTVKLLIYYTSRLHSGVPSRFSGRGSGTDYSLTISNLEQEDIATYFCQQGSTLPYTFGGGTKLEIK
notes: murine mAb, hybridoma CNCM I-4773, group G2
- % internalisation [1]: 73%
- ΔMFI [1]: 83 MFI
- binding result [2]: no binding (tested: log [M] about -6.5 (about 3e-7 M))
- D.O 450 nm [3]: 0.102 D.O 450 nm
- MFI [4]: 2190 MFI
- MFI [5]: 125 MFI
- MFI 4°C [6]: 390 MFI
- binding result [7]: no binding
- hIGF-1R phosphorylation in response to IGF-1 (western blot, MCF-7) [8]: > 80%
- binding result [9]: no binding
- HalfLife (decay of cell-surface bound antibody on MCF-7 at 37°C) [10]: 14.3 min (unit from p-0380; none on the sheet)

B2: m219D6 (antibody, V domains shown)
VH: QVQLQQSGPELVKPGDSVKMSCKASGYSFTSYFIHWVKQRPGQGLEWIGWIWPGDGSTKYNEKFKGKTTLTTDKSSSTAYMFLNSLTSEDSAVYFCASPMITPNYAMDYWGQGASVTVSS
VL: DIQMTQTTSSLSASLGDRVTISCRASQDISKYLNWYQQQPDGTVKLLIYYTSRLHSGVPSRFSGRGSGTDYSLTISNLEQEDIATYFCQQGSTLPYTFGGGTKLEIK
notes: murine mAb, hybridoma CNCM I-4736, group G2
- % internalisation [1]: 71%
- ΔMFI [1]: 80 MFI
- binding result [2]: no binding (tested: log [M] about -6.5 (about 3e-7 M))
- D.O 450 nm [3]: 0.112 D.O 450 nm
- MFI [4]: 2110 MFI
- MFI [5]: 114 MFI
- MFI 4°C [6]: 349 MFI
- binding result [7]: no binding
- hIGF-1R phosphorylation in response to IGF-1 (western blot, MCF-7) [8]: > 80%
- binding result [9]: no binding
- HalfLife (decay of cell-surface bound antibody on MCF-7 at 37°C) [10]: 17.9 min (unit from p-0380; none on the sheet)

B3: c213B10 (antibody, human IgG1, kappa)
heavy: not shown
light: DIQMTQTTSSLSASLGDRVTISCRASQDISKYLNWYQQQPDGTIKLLIYYTSRLHSGVPSRFSGRGSGTDYSLTITNLEQEDIATYFCQQGSALPYTFGGGTKLEIKRTVAAPSVFIFPPSDEQLKSGTASVVCLLNNFYPREAKVQWKVDNALQSGNSQESVTEQDSKDSTYSLSSTLTLSKADYEKHKVYACEVTHQGLSSPVTKSFNRGEC
notes: group G2; also called chimeric 213B10
- % internalisation [1]: 73%
- ΔMFI [1]: 101 MFI
- Bmax [11]: 2030 MFI
- EC50 [11]: 0.33 nM
- % Internalization (MCF-7, 10 µg/ml, 4 h) [12]: 85%
- ΔMFI [12]: 369 MFI
- hIGF-1R phosphorylation, % of that induced by IGF-1 (MCF-7, Ab 10 µg/ml) [8]: < 20%
- Bmax [13]: 1100 MFI
- EC50 [13]: 0.44 nM

B4: c214F8 (antibody, human IgG1, kappa)
heavy: not shown
light: DIQMTQTTSSLSASLGDRVTFSCRASQDISKYLNWYQQQPDGTIKLLIYYTSRLHSGVPSRFSGRGSGTDYSLTITNLEQEDIATYFCQQGSALPYTFGGGTKLEIKRTVAAPSVFIFPPSDEQLKSGTASVVCLLNNFYPREAKVQWKVDNALQSGNSQESVTEQDSKDSTYSLSSTLTLSKADYEKHKVYACEVTHQGLSSPVTKSFNRGEC
notes: group G2; also called chimeric 214F8
- % internalisation [1]: 72%
- ΔMFI [1]: 98 MFI
- Bmax [11]: 2090 MFI
- EC50 [11]: 0.27 nM
- % Internalization (MCF-7, 10 µg/ml, 4 h) [12]: 87%
- ΔMFI [12]: 403 MFI
- hIGF-1R phosphorylation, % of that induced by IGF-1 (MCF-7, Ab 10 µg/ml) [8]: < 20%
- Bmax [13]: 1070 MFI
- EC50 [13]: 0.5 nM

B5: c219D6 (antibody, human IgG1, kappa, V domains shown)
VH: QVQLQQSGPELVKPGDSVKMSCKASGYSFTSYFIHWVKQRPGQGLEWIGWIWPGDGSTKYNEKFKGKTTLTTDKSSSTAYMFLNSLTSEDSAVYFCASPMITPNYAMDYWGQGASVTVSS
VL: DIQMTQTTSSLSASLGDRVTISCRASQDISKYLNWYQQQPDGTVKLLIYYTSRLHSGVPSRFSGRGSGTDYSLTISNLEQEDIATYFCQQGSTLPYTFGGGTKLEIKR
notes: group G2; also called chimeric 219D6
- % internalisation [1]: 74%
- ΔMFI [1]: 102 MFI
- Bmax [11]: 2520 MFI
- EC50 [11]: 0.55 nM
- % Internalization (MCF-7, 10 µg/ml, 4 h) [12]: 80%
- ΔMFI [12]: 353 MFI
- hIGF-1R phosphorylation, % of that induced by IGF-1 (MCF-7, Ab 10 µg/ml) [8]: < 20%
- Bmax [13]: 993 MFI
- EC50 [13]: 0.47 nM
